One molecule from patent US20240228579A1 (Innovent, published 2024) can be followed below.

Experiment [1] has as its target T1, Human CD32A/FCGR2A protein (167his) (human, UniProt P12318 34-218, limits assumed).
T1 construct: Bought, his-tagged; also called CD32A (H167); CD32A H167; not shown: his tag
T1 sequence (looked up): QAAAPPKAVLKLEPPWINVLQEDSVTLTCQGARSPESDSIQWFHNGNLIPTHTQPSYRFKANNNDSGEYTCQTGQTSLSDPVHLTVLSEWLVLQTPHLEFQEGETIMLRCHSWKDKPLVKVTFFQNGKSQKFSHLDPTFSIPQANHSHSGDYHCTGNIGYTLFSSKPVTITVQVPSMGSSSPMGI
Description: SPR (Biacore T200). (In SPR one partner is held on a chip, and binding of the other changes the refractive index at the surface.)

The target in experiment [2] is T2, Human FcγRIIIA/CD16A (V176) protein (human, UniProt P08637 17-208).
T2 construct: Bought, his-tagged; not shown: his tag
Description: SPR (Biacore T200).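 Further: His-tagged Fc receptors captured on an anti-His antibody chip, Fc-variant antibodies flowed as analyte, 60 s association and 60 s dissociation, fitted by 1:1 or steady-state model.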

Experiment [3] deals with T3, Human FcγRIIIA/CD16A (F176) protein (human, UniProt P08637 17-208).
T3 construct: Bought, his-tagged; not shown: his tag
Description: SPR (Biacore T200).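 Further: His-tagged Fc receptors captured on an anti-His antibody chip, Fc-variant antibodies flowed as analyte, 60 s association and 60 s dissociation, fitted by 1:1 or steady-state model.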

The target in experiment [4] is T4, Human FcγRIIIB/CD16B (NA2) (human, UniProt O75015 17-200, limits assumed).
T4 construct: Bought, his-tagged; not shown: his tag
The experiment is described as follows: SPR (Biacore T200).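 Further: His-tagged Fc receptors captured on an anti-His antibody chip, Fc-variant antibodies flowed as analyte, 60 s association and 60 s dissociation, fitted by 1:1 or steady-state model.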

For experiment [5], the target named is T5, Human CD32B/FCGR2B protein (human, UniProt P31994 43-217, limits assumed).
T5 construct: Bought, his-tagged; also called FcγRIIb; not shown: his tag
T5 sequence (looked up): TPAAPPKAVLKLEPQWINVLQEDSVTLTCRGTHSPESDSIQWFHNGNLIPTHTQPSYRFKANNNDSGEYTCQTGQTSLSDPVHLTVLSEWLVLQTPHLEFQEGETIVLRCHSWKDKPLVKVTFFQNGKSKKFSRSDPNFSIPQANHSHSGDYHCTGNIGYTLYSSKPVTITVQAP
The experiment is described as follows: SPR (Biacore T200).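 Further: His-tagged Fc receptors captured on an anti-His antibody chip, Fc-variant antibodies flowed as analyte, 60 s association and 60 s dissociation, fitted by 1:1 or steady-state model.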

For experiment [6], the target named is T6, Human CD32A/FCGR2A protein (167Arg) (human, UniProt P12318 34-218, limits assumed).
T6 construct: Bought, his-tagged; also called CD32A (R167); CD32A R167; not shown: his tag
T6 sequence (looked up): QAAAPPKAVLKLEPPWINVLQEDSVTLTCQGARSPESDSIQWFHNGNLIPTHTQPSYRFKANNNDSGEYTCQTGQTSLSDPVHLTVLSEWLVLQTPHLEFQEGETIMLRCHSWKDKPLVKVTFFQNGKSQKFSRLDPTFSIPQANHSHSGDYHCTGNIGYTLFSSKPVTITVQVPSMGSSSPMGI
Description: SPR (Biacore T200).

Experiment [7] deals with T7, Human CD64/FCGR1A protein (human, UniProt P12314 16-288, limits assumed).
T7 construct: Bought, his-tagged; also called FcγRI; not shown: his tag
The experiment is described as follows: SPR (Biacore T200).

For experiment [8], the target named is T8, Human FcγRIIIB/CD16B (NA1) (human, UniProt O75015 17-200, limits assumed).
T8 construct: Bought, his-tagged; not shown: his tag
Description: SPR (Biacore T200).

The target in experiment [9] is T9, human C1q (human, UniProt P02745 23-245; P02746 28-253; P02747 29-245).
T9 construct: Bought C1q (Complement Technology); also called C1q antigen
The experiment is described as follows: BLI (Octet), biotinylated antibody on SA sensor. (In general: BLI is a label-free optical method that tracks binding on a fibre tip over time.)
Description: (§1) The antibody was diluted to approximately 100 nM, and C1q (Δ099, Complement Technology) was diluted to 40 nM.
(§2) Detection was conducted using Fortebio Octet Red96e, and the sensors were arranged according to the positions of the samples. […] After the experiment was completed, KD values were analyzed using ForteBio Octet analysis software, the coordinate axis data were derived, and Graphpad Prism 8 software was used for plotting.

In experiment [10] the target is T9, human C1q. The experiment is described as follows: BLI (Octet), biotinylated antibody on SA sensor, C1q 40 nM.
Description: as §1, §2
Experiment [11] addresses T10, Claudin18.2 (cp0007, Genscript) (UniProt P56856-2 1-261, limits assumed).
T10 construct: Bought antigen used in BLI; also called Claudin18.2 antigen; the antigen
T10 sequence (looked up): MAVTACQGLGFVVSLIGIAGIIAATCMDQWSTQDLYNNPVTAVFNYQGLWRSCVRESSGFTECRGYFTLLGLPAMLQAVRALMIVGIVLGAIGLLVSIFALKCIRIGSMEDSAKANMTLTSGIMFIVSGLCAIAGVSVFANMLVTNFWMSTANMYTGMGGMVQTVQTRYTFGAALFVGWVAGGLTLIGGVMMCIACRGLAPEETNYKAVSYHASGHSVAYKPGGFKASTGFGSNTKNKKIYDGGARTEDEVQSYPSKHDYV
The experiment is described as follows: BLI (Octet), antibody on AHC sensor, Claudin18.2 100 nM.
Description: The antibody and Claudin18.2 (cp0007, Genscript) were diluted to 100 nM, respectively.
Detection was conducted using Fortebio Octet Red96e, and the sensors were arranged according to the positions of the samples. […] After the experiment was completed, KD values were analyzed using ForteBio Octet analysis software.

In experiment [12] the target is T11, Human FcRn/FCGRT & B2M heterodimeric protein (human, UniProt P55899 24-297; P61769 21-119).
T11 construct: Bought heterodimer with His and Strep II tags
Description: SPR (Biacore T200), FcRn captured, antibody in flow, pH 6.0; pH 6.0.
Description: The specific procedures were as follows: Each of FcγR and FcRn proteins (for information of each Fc receptor, see Table 2 below) containing a histidine tag was captured to the chip surface to which anti-histidine antibodies were coupled, and the binding and dissociation between the proteins on the chip surface and antibodies in the mobile phase were detected to obtain affinity and kinetic constants.
Affinity assay: Each cycle included capture of the receptor, binding of a certain concentration of the antibody carrying the Fc region mutation of the present application, and regeneration of the chip. […] In each cycle, the antibody mutant solution flowed over the chip surface at a flow rate of 30 μL/min, with the binding time of 60 s and the dissociation time of 60 s. […] The obtained data were analyzed using Biacore T200 analysis software (version number 3.1) and using an analysis 1:1 binding or homeostasis analysis model to obtain the corresponding results.

T9 sequence (P02745 23-245 limits assumed, chain 1 of 3): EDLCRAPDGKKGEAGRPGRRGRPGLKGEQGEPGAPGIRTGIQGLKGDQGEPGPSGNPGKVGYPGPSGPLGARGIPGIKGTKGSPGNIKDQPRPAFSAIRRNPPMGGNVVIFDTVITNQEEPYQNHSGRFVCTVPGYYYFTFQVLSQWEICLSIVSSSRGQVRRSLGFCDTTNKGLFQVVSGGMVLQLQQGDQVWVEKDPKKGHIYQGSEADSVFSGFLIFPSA
T9 sequence (P02746 28-253 limits assumed, chain 2 of 3): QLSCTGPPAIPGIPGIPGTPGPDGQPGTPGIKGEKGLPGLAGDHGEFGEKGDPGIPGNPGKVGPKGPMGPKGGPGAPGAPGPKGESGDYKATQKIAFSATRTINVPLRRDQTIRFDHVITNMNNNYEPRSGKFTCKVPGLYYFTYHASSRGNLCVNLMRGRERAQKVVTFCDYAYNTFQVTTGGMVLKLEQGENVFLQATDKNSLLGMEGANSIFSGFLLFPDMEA
T9 sequence (P02747 29-245 limits assumed, chain 3 of 3): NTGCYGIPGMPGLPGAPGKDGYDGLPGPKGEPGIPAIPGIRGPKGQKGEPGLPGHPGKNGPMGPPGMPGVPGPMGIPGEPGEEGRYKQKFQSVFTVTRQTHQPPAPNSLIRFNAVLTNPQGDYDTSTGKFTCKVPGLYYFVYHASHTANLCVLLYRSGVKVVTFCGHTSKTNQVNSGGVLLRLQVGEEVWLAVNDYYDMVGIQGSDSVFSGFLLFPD
T3 sequence (P08637 17-208 limits assumed): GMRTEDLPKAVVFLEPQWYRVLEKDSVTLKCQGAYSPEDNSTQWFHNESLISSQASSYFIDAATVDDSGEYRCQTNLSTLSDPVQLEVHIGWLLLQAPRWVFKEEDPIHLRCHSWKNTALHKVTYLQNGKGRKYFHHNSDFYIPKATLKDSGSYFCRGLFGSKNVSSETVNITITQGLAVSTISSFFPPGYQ
T8 sequence (O75015 other isoform, or with tags, fused parts or gaps limits assumed): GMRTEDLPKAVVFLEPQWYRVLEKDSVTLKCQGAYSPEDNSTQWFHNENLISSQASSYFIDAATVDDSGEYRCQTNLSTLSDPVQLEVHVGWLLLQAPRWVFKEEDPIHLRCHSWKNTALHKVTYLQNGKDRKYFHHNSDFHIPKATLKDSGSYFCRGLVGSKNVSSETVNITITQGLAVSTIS
T4 sequence (O75015 17-200 N65S limits assumed): as the sequence (O75015 other isoform, or with tags, fused parts or gaps limits assumed) above, with R20S, N49S, D66N, V90I counted along it
T7 sequence (P12314 16-288 limits assumed): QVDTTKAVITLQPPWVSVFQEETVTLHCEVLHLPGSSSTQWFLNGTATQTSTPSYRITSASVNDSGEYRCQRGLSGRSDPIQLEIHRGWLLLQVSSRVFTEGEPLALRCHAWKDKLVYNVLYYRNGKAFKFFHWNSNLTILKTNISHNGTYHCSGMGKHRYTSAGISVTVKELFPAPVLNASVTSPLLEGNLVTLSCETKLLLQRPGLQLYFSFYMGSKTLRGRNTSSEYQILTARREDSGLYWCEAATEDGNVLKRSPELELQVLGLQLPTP
T11 sequence (P55899 24-297 limits assumed, chain 1 of 2): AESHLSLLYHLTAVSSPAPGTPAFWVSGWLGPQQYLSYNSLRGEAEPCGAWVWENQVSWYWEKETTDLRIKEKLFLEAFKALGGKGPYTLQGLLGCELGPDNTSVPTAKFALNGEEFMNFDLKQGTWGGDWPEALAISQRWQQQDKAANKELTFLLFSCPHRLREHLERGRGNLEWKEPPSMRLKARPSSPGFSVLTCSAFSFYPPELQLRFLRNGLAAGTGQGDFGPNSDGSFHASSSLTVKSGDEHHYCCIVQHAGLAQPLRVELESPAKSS
T11 sequence (P61769 21-119 limits assumed, chain 2 of 2): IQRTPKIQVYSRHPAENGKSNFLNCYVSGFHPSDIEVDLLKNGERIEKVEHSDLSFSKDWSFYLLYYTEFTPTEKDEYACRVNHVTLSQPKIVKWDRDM
T2 sequence (P08637 17-208 F176V limits assumed): as the sequence (P08637 17-208 limits assumed) above, with F160V counted along it

B1: Fcmut-08 (antibody, human IgG1, kappa, L234A L235A)
heavy: QVQLVQSGAEVKKPGSSVKVSCKASGYSFSSYNIHWVRQAPGQGLEWMGYIAPFQGDSRYNQKFKGRVTITADKSTSTAYMELSSLRSEDTAVYYCARLNRGNSLDYWGQGTLVTVSSASTKGPSVFPLAPSSKSTSGGTAALGCLVKDYFPEPVTVSWNSGALTSGVHTFPAVLQSSGLYSLSSVVTVPSSSLGTQTYICNVNHKPSNTKVDKKVEPKSCDKTHTCPPCPAPEAAGGPSVFLFPPKPKDTLMISRTPEVTCVVVDVSHEDPEVKFNWYVDGVEVHNAKTKPREEQYNSTYRVVSVLTVLHQDWLNGKEYKCKVSNKALPIEKTISKAKGQPREPQVYTLPPSREEMTKNQVSLTCLVKGFYPSDIAVEWESNGQPENNYKTTPPVLDSDGSFFLYSKLTVDKSRWQQGNVFSCSVMHEALHNHYTQKSLSLSPGK
light: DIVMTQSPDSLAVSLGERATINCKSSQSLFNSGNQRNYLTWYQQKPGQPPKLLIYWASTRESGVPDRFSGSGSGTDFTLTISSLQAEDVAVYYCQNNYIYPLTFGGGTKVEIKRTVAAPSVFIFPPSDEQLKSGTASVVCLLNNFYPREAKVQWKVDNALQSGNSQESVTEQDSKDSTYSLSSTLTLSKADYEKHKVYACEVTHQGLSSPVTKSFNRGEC
notes: IgG1-mut of Fcmut-01: L234A + L235A + deletion of 329 and 330 (EU index); also called Fcmut-8
B1: the binding result in [1], in experiment [2], in experiment [3], in experiment [4], in experiment [5] and in experiment [6] was “no binding (tested: 400 nM)” throughout. Further, the binding result is “no binding (tested: 400 nM)” in experiment [7], “no binding (tested: 400 nM)” in experiment [8] and “no binding (tested: C1q 40 nM)” in experiment [9]. Besides, the figures for the Response in experiment [10] and in experiment [11] were 0.0004 nm and 0.152 nm, respectively. Further, the figures for the Kd in [11] and in experiment [12] were 2.41 nM and 402 nM, respectively. Besides, the koff (usually a measure of how fast the partners let go of each other) in experiment [11] came to 0.0002 s⁻¹. Also, the kon (as a rule, the rate constant with which the complex forms) in [11] worked out at 82900 M⁻¹ s⁻¹.
